# B1: hu39.5_IGG4.P (antibody, human IgG4 S228P, kappa)
# heavy: not shown
# light: DTVLTQSPASLAVSPGQRATITCRASEGVKSYMHWYQQKPGQPPKLLIYKASNLASGVPARFSGSGSGTDFTLTINPVEADDTANYYCQQSWNDPTFGQGTKLEIKRTVAAPSVFIFPPSDEQLKSGTASVVCLLNNFYPREAKVQWKVDNALQSGNSQESVTEQDSKDSTYSLSSTLTLSKADYEKHKVYACEVTHQGLSSPVTKSFNRGEC
# notes: humanized variant of antibody 39 (VH3 + VL1 with I2T), IgG4 (S228P)
# What was measured:
# [1] = molecular target: T1, human CD39 expressed on the cell surface (human, UniProt P49961 1-510); assay: flow cytometry on purified human CD14+ monocytes, 400 uM ATP
# T1 construct: full-length human CD39 transfected into CHO-K1, or endogenous human CD39 on primary cells and cell lines, or human CD39 of knock-in mice; also called Human CD39-CHO-K1; cellular human CD39
# T1 sequence: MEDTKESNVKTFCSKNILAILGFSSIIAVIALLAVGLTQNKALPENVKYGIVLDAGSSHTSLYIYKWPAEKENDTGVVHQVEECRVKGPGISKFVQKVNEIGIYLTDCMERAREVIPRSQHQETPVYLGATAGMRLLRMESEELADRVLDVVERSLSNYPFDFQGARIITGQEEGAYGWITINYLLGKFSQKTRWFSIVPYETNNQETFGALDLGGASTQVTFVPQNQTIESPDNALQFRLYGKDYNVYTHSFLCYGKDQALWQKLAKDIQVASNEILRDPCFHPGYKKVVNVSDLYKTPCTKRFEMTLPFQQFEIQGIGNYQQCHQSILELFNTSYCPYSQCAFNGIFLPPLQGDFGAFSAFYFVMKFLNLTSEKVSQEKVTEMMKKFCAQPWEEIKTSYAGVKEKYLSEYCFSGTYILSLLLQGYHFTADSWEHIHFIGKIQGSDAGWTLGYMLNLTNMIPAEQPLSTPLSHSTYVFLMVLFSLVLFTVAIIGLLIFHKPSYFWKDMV
# [2] = molecular target: T2, soluble His-tagged human CD39 ECD protein (human, UniProt P49961 38-478); assay: SPR (Biacore 8K), antibody captured via anti-human Fc, CD39 ECD analyte
# T2 construct: also called human CD39 ECD His-tagged antigen; Sino Biological Cat. No. 16020-H08B
# T2 sequence: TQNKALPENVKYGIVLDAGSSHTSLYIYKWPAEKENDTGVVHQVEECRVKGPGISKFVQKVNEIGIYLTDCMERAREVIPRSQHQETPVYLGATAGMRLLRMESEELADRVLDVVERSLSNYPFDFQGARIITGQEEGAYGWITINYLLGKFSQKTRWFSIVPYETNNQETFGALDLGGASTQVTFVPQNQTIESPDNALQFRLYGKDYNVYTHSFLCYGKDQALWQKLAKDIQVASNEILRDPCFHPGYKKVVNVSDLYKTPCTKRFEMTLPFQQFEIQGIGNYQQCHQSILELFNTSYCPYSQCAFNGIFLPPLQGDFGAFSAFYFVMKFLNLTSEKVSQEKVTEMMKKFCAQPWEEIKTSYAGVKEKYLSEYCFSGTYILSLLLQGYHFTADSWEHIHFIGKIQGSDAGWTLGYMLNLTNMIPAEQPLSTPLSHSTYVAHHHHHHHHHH
# [3] = molecular target: T1, human CD39 expressed on the cell surface; assay: cell-based or functional assay
# [4] = molecular target: T1, human CD39 expressed on the cell surface; assay: FACS on CHO-K1 cells overexpressing human CD39
# [5] = molecular target: T1, human CD39 expressed on the cell surface; assay: cell-based or functional assay; remark: listed apart in the source
# [6] = molecular target: T3, cynomolgus monkey CD39 expressed on HEK-293 cells (cynomolgus monkey, UniProt P49961 5-510 (human entry)); assay: FACS on HEK293 cells overexpressing cynomolgus CD39
# T3 construct: also called Cynomolgus Monkey CD39-HEK293
# T3 chain: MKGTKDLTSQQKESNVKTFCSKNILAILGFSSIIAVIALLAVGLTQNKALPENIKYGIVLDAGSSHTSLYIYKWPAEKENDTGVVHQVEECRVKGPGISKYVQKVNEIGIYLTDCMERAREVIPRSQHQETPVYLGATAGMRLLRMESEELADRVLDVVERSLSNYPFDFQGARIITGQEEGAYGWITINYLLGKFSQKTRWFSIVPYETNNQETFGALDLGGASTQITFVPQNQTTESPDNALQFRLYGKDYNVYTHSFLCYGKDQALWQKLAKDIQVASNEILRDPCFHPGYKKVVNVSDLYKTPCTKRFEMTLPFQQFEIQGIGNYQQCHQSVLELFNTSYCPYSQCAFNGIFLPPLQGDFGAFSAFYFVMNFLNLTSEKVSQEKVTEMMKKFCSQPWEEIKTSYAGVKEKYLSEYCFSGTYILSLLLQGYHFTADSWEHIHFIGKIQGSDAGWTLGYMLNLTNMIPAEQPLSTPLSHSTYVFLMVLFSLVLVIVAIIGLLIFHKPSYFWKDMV
# [7] = molecular target: T1, human CD39 expressed on the cell surface; assay: flow cytometry on purified human CD14+ monocytes, 0 uM ATP
# [8] = molecular target: T1, human CD39 expressed on the cell surface; assay: cell-based or functional assay; remark: listed apart in the source
# [9] = molecular target: T1, human CD39 expressed on the cell surface; assay: cell-based or functional assay; remark: listed apart in the source
# [10] = molecular target: T1, human CD39 expressed on the cell surface; assay: cell-based or functional assay; remark: listed apart in the source
binder,measurement,setting,value
B1,EC50,[1],10 nM
same,Kd,[2],0.121 nM
same,"IC50, CD39 enzymatic inhibition on human monocytes, 20 uM ATP",[3],0.15 nM
same,"Max Inhibition (%), human monocytes, 20 uM ATP",[3],72%
same,EC50,[4],0.44 nM
same,"IC50, CD39 enzymatic inhibition on SK-MEL-5 cells, 20 uM ATP",[5],0.14 nM
same,"Max Inhibition (%), SK-MEL-5 cells",[5],66%
same,EC50,[6],0.088 nM
same,EC50,[7],3.9 nM
same,"IC50, CD39 enzymatic inhibition on human monocytes, 400 uM ATP",[8],0.2 nM
same,"Max Inhibition (%), human monocytes, 400 uM ATP",[8],60%
same,"IC50, CD39 enzymatic inhibition on THP-1 cells, 20 uM ATP",[9],0.062 nM
same,"Max Inhibition (%), THP-1 cells",[9],83%
same,Human THP-1 CD39 inhibition IC50,[10],0.1 nM
